Test results as given in patent publication US20120288914A1, “CRYSTAL STRUCTURE OF GLYPHOSATE ACETYLTRANSFERASE (GLYAT) AND METHODS OF USE” (PIONEER HI BRED INTERNATIONAL INC., priority 2009, published 2012).

Columns and labels:
R7 GLYAT = assay: inhibition of R7 GLYAT with respect to glyphosate; assay type: biochemical, B. licheniformis
Excerpt: See PDB:2JDD for the atomic coordinates and structure factors of the X-ray crystal structure of the ternary complex of R7 GLYAT with AcCoA and 3PG and PDB:2JDC for the atomic coordinates and structure factors of the X-ray crystal structure of the binary complex of R7 GLYAT with oxidized CoA and sulfate bound in the glyphosate binding pocket. See Tables 11 and 12 for the atoms of the R7 GLYAT variant polypeptide and of AcCoA that contact 3PG (i.e., the substrate binding cavity) and the residues of R7 that contact AcCoA, respectively.

[1] = substrate glyphosate; cited from earlier work

| Molecule | mode of inhibition (R7 GLYAT) | Km [1] |
| --- | --- | --- |
| O=C(O)[C@H](O)COP(=O)(O)O [3-phosphoglycerate] | competitive inhibitor | – |
| R7: GLYAT variant resulting from seven rounds of DNA shuffling of a native GLYAT polypeptide; SEQ ID NO: 1 (protein, R7 GLYAT variant polypeptide) MIEVKPINAEDTYELRHRILRPNQPIEACMFESDLLRGAFHLGGYYGGKLISIASFHQAEHSELQGQKQYQLRGMATLEGYREQKAGSSLIKHAEEILRKRGADLLWCNARTSASGYYKKLGFSEQGEVFDTPPVGPHILMYKRIT | – | 240 µM |
| R11: GLYAT variant from the eleventh round of DNA shuffling; SEQ ID NO: 2 (protein, R11 GLYAT variant polypeptide) MIEVKPINAEDTYDLRHRVLRPNQPIEACMFESDLTRSAFHLGGFYGGKLISVASFHQAEHSELQGKKQYQLRGVATLEGYREQKAGSSLVKHAEEILRKRGADMIWCNARTSASGYYRKLGFSEQGEVFDTPPVGPHILMYKRIT | – | 55 µM |
| native GLYAT: naturally occurring glyphosate N-acetyltransferase from Bacillus licheniformis; SEQ ID NO: 3 (protein, listed as Bacillus licheniformis, ST401 GAT) MIEVKPINAEDTYEIRHRILRPNQPLEACMYETDLLGGAFHLGGYYRGKLISIASFHKAEHSELEGEEQYQLRGMATLEGYREQKAGSTLIRHAEELLRKKGADLLWCNARTSVSGYYEKLGFSEQGEVYDIPPIGPHILMYKKLT | – | 1270 µM |
